Article PMC4321713

Target: Cnidoin fragment (residues 150 to 419) with N-terminal ybbR tag and C-terminal type I dockerin-histidine tag (Hydra magnipapillata | not stated)
Test: AFM single molecule force spectroscopy; Cnidoin-dockerin construct attached covalently by its ybbR tag to a coenzyme A glass surface; CBM A2C-Cohesin on the cantilever tip; 25 mM Tris, 72 mM NaCl, pH 7.2, 1 mM CaCl2, 10 mM DTT; pulling speeds 200 nm/s to 6,400 nm/s

- rupture force: 100 pN
Substance: CBM A2C-Cohesin from Clostridium thermocellum (domain or fragment)
